Consider two substances from paper PMC8124314.

pKd: −log10 of the molar value. Where two headings read alike, the source gives them in different places.

Assay [1] deals with MBP-fused epithelial cadherin (MBP-eCAD). Description: SPR. A general note: In SPR one partner is held on a chip, and binding of the other changes the refractive index at the surface.
Assay [2] shares this target. As to the kind of experiment: SPR. The source holds these as a separate data set.
The target of assay [3] is E-cadherin (Homo sapiens) (UniProt P12830). The conditions noted are these: cited from earlier work.

Take “MBP-fused epithelial cadherin (MBP-eCAD) (domain or fragment)”: in assay [1], the pKd (commonly the negative decadic logarithm of the Kd, by convention in mol/L) is 6.71; the koff – broadly, the rate constant with which the complex falls apart – turned out to be 0.000696 s⁻¹; the kon (usually a measure of how fast the partners come together) was determined as 4650 M⁻¹ s⁻¹. The same substance had a pKd in assay [2] of 3.71.

Turning to E-cadherin (from UniProt P12830), the pKd in assay [3] was 4.00.
